Assay results published in paper PMC11637584 (2024).

Molecular target: Ubiquitin (Homo sapiens, UniProt P0CG48)
Test: BLI

B1: MERS-CoV papain-like protease (PLpro) PLpro (protein)
chain: QLTIEVLVTVDGVNFRTVVLNNKNTYRSQLGCVFFNGADISDTIPDEKQNGHSLYLADNLTADETKALKELYGPVDPTFLHRFYSLKAAVHKWKMVVCDKVRSLKLSDNNCYLNAVIMTLDLLKDIKFVIPALQHAFMKHKGGDSTDFIALIMAYGNCTFGAPDDASRLLHTVLAKAELCCSARMVWREWCNVCGIKDVVLQGLKACCYVGVQTVEDLRARMTYVCQCGGERHRQIVEHTTPWLLLSGTPNEKLVTTSTAPDFVAFNVFQGIETAVGHYVHARLKGGLILKFDSGTVSKTSDWKCKVTDVLFPGQKYSSDCN
B1 gave a Kd of 40.8 µM.
